# Measured values as given in US20230226096A1 (Orna Therapeutics, Inc., priority 2020, published 2023).
# B1: Tottorivirus (nucleic acid, listed as Tottorivirus sp.)
# DNA: CCCCTTTACGTAACTGCAACTTAAAGAGTACCCTACTGCATTGGATGTGTGGTAAACTTTTACGCACACATTTGTAGTAGTGTTAGTTATGTTCTACCTAATGAGTATGCATGCACCCGTCGAAACACGCTTGTGATAAGATAGGTGAGTCCATGTGACTAATCTCATTAAGATAAATAAGCACCCTACAACGCACGGCACGCTCGTGTCTTCCGTGCGGGGCCGGGACAACAGCGGCCTAAATCTTCTAGGTGACCACCATGCTTTTGGGACTATGGCACCACTGTGGACGTGAGTACCTGGCAGTAAGTCTGTGAAAAGATGGAAGGTGTCCCAAGCTATGGGGCGTATGCATATAGCCTGCGGAACAAACAACGGCGACGTTGTCCCCAGGGCCCAAAAGGCACGTGGATAAGATCCACCTATATGTTTACCCCATAGTGTAAGTCACTGGAAGTCCTAGTAATGGATGTCTGGAGTAAGGCTCACGGGGTAGGGCGAAGGATGCCCAGAAGGTACCCGTAGGTAACCTTAAGAGACTATGGATCTGATCTGGGGACCGGATGGCGCCATCACCATGACGTGGAGGCCGGTTTAAAAAACGTCTAAGCCCGACCAACAACCTAGGGGACTAGGTTTTCCTTTTTTATTCATGTATGACGTT
# B2: PTV B (nucleic acid)
# DNA: CTTCCTTTTAATTCGTAACTGATAAGTGATAGTCCTTGGAAGCTAGGTATTTGTTACGCTAGTTTTGGATTATCTTGTGCCCAACATTTGTTTTCGAACATATGTTGTGTTTAAACACAGAAATCTAGTTTCTTTGGTTATGAGTTTAATGGAATATCCTTTTGAAAGACTTGCCTTGGCGCGGGCTAGAGCGCAATTGTCACCAGGTATTGCACCAATGGTGGCGACAGGGTACAGAAGAGCAAGTACTCCTGACTGGGTAATGGGACTGCATTGCATATCCCTAGGCATCTATTGAGATTTCTCTGGAGCCCACCAGCATGGAGTTCCTGTATGGGAATGCAGGACTGGACTTGTGCTGCCTGACAGGGTCGCGGCTGGCCGTCTGTACTTTGTATAGTCAGTTGAAACTCATT
# modifications: Teschovirus B
# B3: SVV (nucleic acid)
# DNA: CTGGGCCCTCATGCCCAGTCCTTCCTTTCCCCTTCCGGGGGGTAAACCGGCTGTGTTTGCTAGAGGCACAGAGGAGCAACATCCAACCTGCTTTTGTGGGGAACGGTGCGGCTCCAATTCCTGCGTCGCCAAAGGTGTTAGCGCACCCAAACGGCGCATCTACCAATGCTATTGGTGTGGTCTGCGAGTTCTAGCCTACTCGTTTCTCCCCTATCCACTCACTCACGCACAAAAAGTGTGCTGTAATTACAAGATTTAGCCCTCGCACGAGATGTGCGATAACCGCAAGATTGACTCAAGCGCGGAAAGCGCTGTAACCACATGCTGTTAGTCCCTTCATGGCTGCGAGATGGCTATCCACCTCGGATCACTGAACTGGAGCTCGACCCTCCTTAGTAAGGGAACCGAGAGGCCTTCTTGCAACAAGCTCCGACACAGAGTCCACGTGATTGCTACCACCATGAGTACATGGTTCTCCCCTCTCGACCCAGGACTTCTTTTTGAATATCCACGGCTCGATCCAGAGGGTGGGGCATGATCCCCCTAGCATAGCGAGCTACAGCGGGAACTGTAGCTAGGCCTTAGCGTGCCTTGGATACTGCCTGATAGGGCGACGGCCTAGTCGTGTCGGTTCTATAGGTAGCACATACAAAT
# B4: Cosavirus A SH1 (nucleic acid)
# DNA: CCGTGCTTTACACGGTTTTTGAACCCCACACCGGCTGTTTGGCGCTTGCAGGACAGCAGGTTTATTTTCTTATGCTCTTTATTTCTAGCCAACAGGGTTCTATCCTGTTGGGCGGAGTGATACTCCCGTTCCTTCTTGGACAGATTGCCTCCACGATCTTTGTGGATCTCAAGGTGATCAAGTCACTGGTAAATAGAGCGAAGGTTGAGGAAACCTGAGGAATTTCCATGTGGTTTTGCCAGGAGTTGTAGCGATGCTGTGTGTGTGTGCGGATTTCCCCTCATGGCAACATGAGCCTCACAGGCCAAAAGCCCTGTCCGAAAGGACCCACACAGTGGAGCAATCCCAGCTCCCTCCTACAAAGCTTTGTGAGAATGAACTCACGTTTATTCTTCTTTATTCTCTGTTTACATCAGGCCCCAAAGATGTCCTGAAGGTACCTTGTGTATCTGGGCATGAGCACCATCAACTACCCGGACTTGCATTTCGGTGCAGACACATGTGGTTACCCAGCCCCTCTGCTTTGGCAGAGGGGCTTTTGCTCGCTCAGCACGAGATCTGATCAGGAGCCCTTCCCAGTGTGCTTTACACCTGGCGGGGGGTTAAAAATTGCCCAAGGCCTGGCAAAATAACCTAGGGGACTAGGTTTTCCTTTTATTAACAATGTCTGTCATT
# modifications: Cosavirus A
# B5: Mosavirus A2 SZAL6 (nucleic acid, listed as Mosavirus sp.)
# DNA: CCCCCCCCTCAAATTGCAACGATATAGCTAATGGCGAGATTGAGATGCTATATCACCTCTTCTAAGTTATAGACCTCATCTGATTGATAAGGACGTAATTTGGTCGAAACCGCTTGGAATAAGACCGATGCGCGTAGTCATGATGATGATGTAAGATCTAGGAACTTATCCAATCTGCTTATGTCTATGTAAGTAGAGGGGCAGGCCTCATTGCCCTAATTCTTTCTACCGAGTATCTGCTAGGGTTTCTAGCGGCTTGAATACTTGGATTGAGGGATACAAGATACTACTGATCGATTGTCGATTGGGAAACTTGTAGATACTTCAAAGCTACCAGTAGCGTGGACTCACAGCCAGCGGACTACCCCTCATGGTAACATGAGCCTCTGGGCCCACAAGGCACGTCGCAAGACCTGTGAGACGGCAACCCCAGCCTAGCTTTGTTGAGGAAACAAGCGATAACATGACATGAGAGACCGGAAGGATTCTTGTATTGTGAGCCGAAGGATGGCCTCTAGGTACCTCATTTTATGAGATCTGAGGAGGTGCTCTTGAGTTGGTGCTTTACACTGACAACACAGAGTTAAAAAGCGTCTAAGCTCACCCGGAAATTGGGAAATTTCCGTTATTTCCATTTTGTTTGCAAAGTCGTTC
# B6: REV A (nucleic acid, listed as Reticuloendotheliosis virus)
# DNA: GGGGTCGCCGTCCTACACATTGTTGTGACGTGCGGCCCAGATTCGAATCTGTAATAAAAGCTTTTTCTTCTATATCCTCAGATTGGCAGTGAGAGGAGATTTTGTTCGTGGTGTTGGCTGGCCTACTGGGTGGGGTAGGGATCCGGACTGAATCCGTAGTATTTCGGTACAACATTTGGGGGCTCGTCCGGGATTCCTCCCCATCGGCAGAGGTGCCTACTGTTTCTTCGAACTCCGGCGCCGGTAAGTAAGTACTTGATTTTGGTACCTCGCGAGGGTTTGGGAGGATCGGAGTGGCGGGACGCTGCCGGGAAGCTCCACCTCCGCTCAGCAGGGGACGCCCTGGTCTGAGCTCTGTGGTATCTGATTGTTGTTGAACCGTCTCTAAGACGGTGATACTATAAGTCGTGGTTTGTGTGTTTGTTTGTTACCTTGTGTTTGTTCGTCACTTGTCGACAGCGCCCTGCGAATTGGTGTACCCACACCGCGCGGCTTGCGAATAATACTTTGGAGAGTCTTTTGCCTCCAGTGTCTTCCGTTTGTACTCGTCCTCCTCTCCCTCTCCGGCCGGGATGGG
# B7: Cosavirus B1 (nucleic acid, listed as Cosavirus sp.)
# DNA: CGTGCTTTACACGGTTTTTGAACCCCACACCGGCTGTTTGGCGCTTGCAGGACAGCAGGTTTATTTTCTTTTAACTCTCTCTTTCTAGCCACACACGATCTATGTGTGTGGGCGGAGTGATACTCCCGTTCCTTCTTGGACAGGCGGCCTCCACGCCCTTTGTGGATCTTAAGGCTACCAAGTCACTGGTGTTGGAAAGTGAAGAGAAAGGAGTTCCTTGGGAACTACATGTGGCATTGACAGAGGTTGTAGCGATGCTGTGTGTGTGTGCGGATTACCCCCGTGGCGACACGGACCCCACAGGCCAAAAGCCCTGTCCGAAAGGACCCACACAGTGGAGCAACCCCAGCTCCCCTCTTCAATGTTTTGTGTTAGCAACCTTGGTATTATTTTCTCTCAAGCTTCCAATACACCGGGCCCCAAAGATGTCCTGAAGGTACCCCGTGTATCTGAGGATGAGCACCATCAACTACCCGGACTTGTTCTTTCGAGAACAGACGCATGTGGTAACCCAGCCCCGATCCTAAGGGGTCGGGGCTTTTGCTCACTCAGCACAGGATCTGATCAGGAGACCTCCCCCCCCTGCTTTACAGGGGGCGGGGGTTTAAAAATTGCCCAAGGCCTGGCAAATAACCTAGGGGACTAGGTTTTCCTTTTTATTTTAAAGTTGTCAAT
# B8: Malagasivirus B (nucleic acid)
# DNA: CTTTATTTTCTTATGTAACTCTTCTTTTTAAGTTTTATTTTGCCTACTTGTGAGCTTATGCGGGACCACTGTCTTAGACAACCCCACATTTGTCATGAGTAAGTACACGCAACCATTACGATTACTTTTTAACCGTCTGACCTTTTGATAACAACTGAAGTTAGGCGTGAAACATGCATTTATACCAAAGTAGCCCCGCATTTCCCCACTACGGTGGGGGGGCTACCCTACTGGCTTTGGAACTGTAGCCATTATGTGTTGCCTGGCTTTCAGGATCTCACAACACAACAGTTCTCTCACAATGGAATATGGGTGAGATTGCAGTGACATGAACAAGTATCTAGTAGTACATAGACTCAAGCCTAGTTGCCTGCGGAACAACATGTGGTAACACATGCCCCAGGGTCCAAAAGACAAGGGTTAACAGCCCCTTCTAGGTGTCTGTGTGTGAAGAATACTTTAGTAGTGTTGTTATGATCTCACCTGTTAGTACAGAATGAGTATGGCTTGGTGAAGGATGTCCTACAGGTACCCATTATATGGATCTGAGTAGGAGACCACTAGTGGTGGCTTTACCGCCAGGTGAGTGGTTTAAAAAGCGTCTAGCCAAGCCAACAGCACTAGGGATAGTGCTTTCTATATTTTATATTTTCAGTGTAT
# modifications: Malagasivirus B
# B9: PTV A (nucleic acid)
# DNA: ACTAGTCCTTGGACTTTTGTTGTGTTTAAACACAGAAATTTAATTACCTGGCCATGAATTCATTGGATTAACCCTTCTGAAAGACTTGCTCTGGCGCGAGCTAAAGCGCAATTGTCACCAGGTATTGCACCAGTGGTGGCGACAGGGTACAGAAGAGCAAGTACTCCTGACCGGGCAATGGGACTGCATTGCATATCCCTAGGCACCTATTGAGATTTCTCTGGGGCCCACCGGCGTGGAGTTCCTGTATGGGAATGCAGGACTGGACTTGTGCTGCCTGACAGGGTCGCGGCTGGCCGTCTGTACTTTGTATAGTCAGTTGAAACTCACC
# modifications: Teschovirus A
# Test system: HEK293 cells
# Format: cell-based, human
# Conditions: luminescence from secreted Gluc in supernatant 24 hours after transfection of HEK293 cells; circular RNA encoding Gluc with the named IRES (UTR truncated to 675 nt)
row,Molecule,Expression
1,B1,2.76E+07
2,B2,6.02E+06
3,B3,1.06E+06
4,B4,2.16E+06
5,B5,8.27E+06
6,B6,9.44E+04
7,B7,1.91E+06
8,B8,5.05E+06
9,B9,7.29E+05
